The record followed here is article PMC5422253, “Cryo-EM Structure of a Relaxase Reveals the Molecular Basis of DNA Unwinding during Bacterial Conjugation”.

For one data set, the target named is T1, TraI1-1475 (Escherichia coli conjugative plasmid R1?, UniProt Q6TDU5 1-1475).
T1 sequence: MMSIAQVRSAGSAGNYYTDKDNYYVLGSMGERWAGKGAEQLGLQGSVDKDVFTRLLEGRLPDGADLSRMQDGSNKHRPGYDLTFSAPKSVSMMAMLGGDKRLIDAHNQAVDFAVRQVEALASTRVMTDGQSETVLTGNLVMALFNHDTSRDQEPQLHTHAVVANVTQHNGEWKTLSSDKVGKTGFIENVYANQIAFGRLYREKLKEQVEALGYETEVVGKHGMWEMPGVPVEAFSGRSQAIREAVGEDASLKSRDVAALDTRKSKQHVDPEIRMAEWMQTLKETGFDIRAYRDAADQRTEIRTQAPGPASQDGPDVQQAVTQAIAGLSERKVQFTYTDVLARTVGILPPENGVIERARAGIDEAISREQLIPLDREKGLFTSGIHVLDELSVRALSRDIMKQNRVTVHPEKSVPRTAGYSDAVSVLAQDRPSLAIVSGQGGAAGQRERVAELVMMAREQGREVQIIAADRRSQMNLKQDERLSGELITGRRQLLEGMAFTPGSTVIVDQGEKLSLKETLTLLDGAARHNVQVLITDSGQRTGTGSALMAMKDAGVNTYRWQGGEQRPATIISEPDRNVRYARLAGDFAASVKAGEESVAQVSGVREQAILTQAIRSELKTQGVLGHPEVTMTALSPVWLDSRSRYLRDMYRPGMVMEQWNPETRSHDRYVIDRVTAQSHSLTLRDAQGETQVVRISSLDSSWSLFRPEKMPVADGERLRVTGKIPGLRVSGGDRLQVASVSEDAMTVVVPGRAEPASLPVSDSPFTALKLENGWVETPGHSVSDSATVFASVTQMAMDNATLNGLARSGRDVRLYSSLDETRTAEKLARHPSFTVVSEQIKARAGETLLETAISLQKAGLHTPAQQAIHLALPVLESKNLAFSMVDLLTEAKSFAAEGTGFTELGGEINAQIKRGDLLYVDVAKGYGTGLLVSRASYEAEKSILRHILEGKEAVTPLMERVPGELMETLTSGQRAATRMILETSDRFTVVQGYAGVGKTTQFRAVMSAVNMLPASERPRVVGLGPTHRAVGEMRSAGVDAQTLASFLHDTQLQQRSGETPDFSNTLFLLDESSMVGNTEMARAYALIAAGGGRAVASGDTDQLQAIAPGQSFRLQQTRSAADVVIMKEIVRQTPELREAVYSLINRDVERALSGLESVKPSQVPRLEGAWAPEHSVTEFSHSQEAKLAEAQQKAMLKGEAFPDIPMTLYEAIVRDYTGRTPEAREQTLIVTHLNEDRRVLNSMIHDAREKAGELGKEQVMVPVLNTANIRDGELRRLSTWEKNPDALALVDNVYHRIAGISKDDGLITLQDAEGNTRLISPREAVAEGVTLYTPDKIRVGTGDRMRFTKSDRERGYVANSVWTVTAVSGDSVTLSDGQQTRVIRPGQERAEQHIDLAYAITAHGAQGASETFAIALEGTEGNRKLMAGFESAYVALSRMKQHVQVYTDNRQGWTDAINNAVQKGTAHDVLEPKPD
Description: size exclusion chromatography; after 365 nm photocleavage, peak V; Anisotropy: 10 nM 22-merAlexa488, 50 mM Tris pH 7.2, 100 mM NaCl, 25 C, 20 min; complexes for gel filtration: protein and ssDNA mixed on ice 10 min (stocks in 50 mM Tris pH 7.2, 100 mM NaCl); EPR complexes: PBS pH 7.4, 1 mM MgCl2. The conditions noted are these: protein: recombinant; tags: N-terminal His6 with enterokinase site; label: 5'-Cy5; inverted repeat. On the technique in general: In gel filtration, larger molecules generally elute earlier.

In another data set the target is TraI A1105W/M795A (Escherichia coli conjugative plasmid R1?, UniProt Q6TDU5 1-1756, A1105W;M795A). Briefly: fluorescence anisotropy; higher affinity than the single mutants A1105W and M795A; Kd only in figure; Anisotropy: 10 nM 22-merAlexa488, 50 mM Tris pH 7.2, 100 mM NaCl, 25 C, 20 min; complexes for gel filtration: protein and ssDNA mixed on ice 10 min (stocks in 50 mM Tris pH 7.2, 100 mM NaCl); EPR complexes: PBS pH 7.4, 1 mM MgCl2. To be noted: protein: recombinant; tags: N-terminal His6 with enterokinase site; label: 3'-Alexa488. In general terms: Fluorescence polarisation rises when a labelled molecule tumbles more slowly, as on binding a larger partner.

The target in data set [1] is T2, TraI relaxase wild-type (Escherichia coli conjugative plasmid R1 …, UniProt Q6TDU5 1-1756). Briefly: size exclusion chromatography; protein:ssDNA 1:1, 2:1, 4:1; TraI dimer forms on 49-mer; Anisotropy: 10 nM 22-merAlexa488, 50 mM Tris pH 7.2, 100 mM NaCl, 25 C, 20 min; complexes for gel filtration: protein and ssDNA mixed on ice 10 min (stocks in 50 mM Tris pH 7.2, 100 mM NaCl); EPR complexes: PBS pH 7.4, 1 mM MgCl2. To be noted: protein: recombinant; tags: N-terminal His6 with enterokinase site; inverted repeat 5' of nic.

Data set [2] addresses T2, TraI relaxase wild-type. Briefly: limited trypsin proteolysis; open, protease-sensitive conformer; Anisotropy: 10 nM 22-merAlexa488, 50 mM Tris pH 7.2, 100 mM NaCl, 25 C, 20 min; complexes for gel filtration: protein and ssDNA mixed on ice 10 min (stocks in 50 mM Tris pH 7.2, 100 mM NaCl); EPR complexes: PBS pH 7.4, 1 mM MgCl2. To be noted: protein: recombinant; tags: N-terminal His6 with enterokinase site; inverted repeat.

The target in data set [3] is T2, TraI relaxase wild-type. Description: limited trypsin proteolysis; 1:1 complex; pattern as with 22-mer; Anisotropy: 10 nM 22-merAlexa488, 50 mM Tris pH 7.2, 100 mM NaCl, 25 C, 20 min; complexes for gel filtration: protein and ssDNA mixed on ice 10 min (stocks in 50 mM Tris pH 7.2, 100 mM NaCl); EPR complexes: PBS pH 7.4, 1 mM MgCl2. To be noted: protein: recombinant; tags: N-terminal His6 with enterokinase site.

The next data set deals with TraI-MBP (Escherichia coli conjugative plasmid R1?, UniProt Q6TDU5 1-1756). Description: size exclusion chromatography; after 365 nm photocleavage, peak IV; Anisotropy: 10 nM 22-merAlexa488, 50 mM Tris pH 7.2, 100 mM NaCl, 25 C, 20 min; complexes for gel filtration: protein and ssDNA mixed on ice 10 min (stocks in 50 mM Tris pH 7.2, 100 mM NaCl); EPR complexes: PBS pH 7.4, 1 mM MgCl2. To be noted: protein: recombinant; tags: N-terminal His6 with enterokinase site; C-terminal MBP via TPGSP linker; label: 3'-6-FAM.

Take GCAAAAACTTGTTTTTGCGTGGGGTGTGGT (ssDNA, 3' end from PC linker photocleavage) [Cy5-30-mer photocleavage product]: in the data set with TraI1-1475, the binding result was “binds”.

Regarding GGTGCTTTTGGTGGTGAGAACC (ssDNA) [22-merAlexa488], the binding result with TraI A1105W/M795A is “binds”.

Regarding GCAAAAACTTGTTTTTGCGTGGGGTGTGGTGCTTTTGGTGGTGAGAACC (ssDNA) [49-mer oriT], in the data set with TraI relaxase wild-type [1], the binding result is recorded as “binds”.

Turning to GCAAAAACTTGTTTTTGCGTGGGGTGTGGT (ssDNA) [30-mer], in the data set with TraI relaxase wild-type [2], the binding result is recorded as “binds”.

For GCTTTTGGTGGTGAGAACC (ssDNA) [19-mer], in the data set with TraI relaxase wild-type [3], the binding result is listed as “binds”.

Consider GCTTTTGGTGGTGAGAACC (ssDNA, 5' end from PC linker photocleavage) [19-mer-6-FAM photocleavage product], for which, in the data set with TraI-MBP, the binding result is recorded as “binds”.
